Laboratory results reported in paper PMC3719173 (Nature structural & molecular biology, 2010).

B1: human Rev-erbα LBD (281–614 Δ324–422) (domain or fragment, UniProt P20393 281-614, looked up)
chain: PEPTVEDVISQVARAHREIFTYAHDKLGSSPGNFNANHASGSPYPHGRSGRTVQEIWEDFSMSFTPAVREVVEFAKHIPGFRDLSQHDQVTLLKAGTFEVLMVRFASLFNVKDQTVMFLSRTTYSLQELGAMGMGDLLSAMFDFSEKLNSLALTEEELGLFTAVVLVSADRSGMENSASVEQLQETLLRALRALVLKNRPLETSRFTKLLLKLPDLRTLNNMHSEKLLSFRVDAQ

Experiments:
Rev-erbα LBD = conditions: NCoR ID1 peptide; cited from earlier work
GST-Rev-erbα LBD (human) = molecular target: T1, GST-Rev-erbα LBD (human); experiment: FRET or BRET
T1 sequence (P20393 whole entry, looked up): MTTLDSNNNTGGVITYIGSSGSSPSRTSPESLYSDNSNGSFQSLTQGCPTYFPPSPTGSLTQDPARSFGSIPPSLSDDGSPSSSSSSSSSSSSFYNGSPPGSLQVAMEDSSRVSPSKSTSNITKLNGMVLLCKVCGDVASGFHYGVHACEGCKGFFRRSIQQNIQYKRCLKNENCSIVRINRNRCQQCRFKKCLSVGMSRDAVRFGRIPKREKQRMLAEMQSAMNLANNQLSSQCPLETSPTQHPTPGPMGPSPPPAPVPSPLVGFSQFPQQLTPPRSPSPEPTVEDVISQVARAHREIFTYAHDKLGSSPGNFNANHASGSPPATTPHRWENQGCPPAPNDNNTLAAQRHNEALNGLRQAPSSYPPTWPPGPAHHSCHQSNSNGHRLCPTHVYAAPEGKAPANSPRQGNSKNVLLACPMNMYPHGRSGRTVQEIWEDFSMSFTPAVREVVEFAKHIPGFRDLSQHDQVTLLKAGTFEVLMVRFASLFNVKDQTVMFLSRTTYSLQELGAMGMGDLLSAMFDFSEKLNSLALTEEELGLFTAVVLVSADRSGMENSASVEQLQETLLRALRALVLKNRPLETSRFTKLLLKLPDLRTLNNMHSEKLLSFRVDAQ

[1] = molecular target: B1; experiment: crystal structure
crystal structure = molecular target: the molecule itself; experiment: crystal structure

Molecule	IC50 (GST-Rev-erbα LBD (human)) [nM]	also measured
C=CC1=C(C)c2cc3[n-]c(cc4[n-]c(cc5nc(cc1n2)C(C)=C5C=C)c(C)c4CCC(=O)O)c(CCC(=O)O)c3C.[Fe+2] [heme]	–	Effect of heme binding on interaction of Rev-erbα LBD with ID1 peptide (Rev-erbα LBD): destabilizes the interaction of Rev-erbα with the ID1 peptide
NCoR (2040–2065) +1Ile2055 alanine mutant peptide (from UniProt O75376 2040-2065)	50300	–
NCoR (2040–2065) +4Ile2058 alanine mutant peptide (from UniProt O75376 2040-2065)	8100	–
NCoR (2040–2065) +5Ile2059 alanine mutant peptide (from UniProt O75376 2040-2065)	19400	–
NCoR (2040–2065) +9F2063A peptide (from UniProt O75376 2040-2065)	1900	–
NCoR (2040–2065) −1H2054A peptide (from UniProt O75376 2040-2065)	250	–
NCoR (2040–2065) −4Leu2051A peptide (from UniProt O75376 2040-2065)	600	–
NCoR (2040–2065) −7Leu2048A peptide (from UniProt O75376 2040-2065)	570	–
NCoR (2040–2065) −9His2046A peptide (from UniProt O75376 2040-2065)	540	–
control wild type NCoR ID1 (2040–2065) peptide (from UniProt O75376 2040-2065)	220	–
THRLITLADHICQIITQDFAR [NCoR CoRNR1 peptide (2045–2065)]	–	binding result [1]: binds
B1	–	binding result (crystal structure): binds
